This is an account of results in article PMC3078924.

The assay deals with recombinant ATP synthase subunit β of A. actinomycetemcomitans, as purified (Aggregatibacter actinomycetemcomitans ATCC 700685 (HK1651)). Description: native gel or EMSA; recombinant ATP synthase subunit β on native PAGE, silver stained; three prominent forms.

Broadly, the stoichiometry N is a count of units in the complex or per binding partner.

“recombinant ATP synthase subunit β of A. actinomycetemcomitans, as purified (enzyme)”: the stoichiometry N was 3.
